{"source": "paper PMC8593620", "test": "immunoblot of steady-state levels, CpA cells", "settings": "glycan lost; control: wild-type Iso1", "data": [{"protein": "RNF128 Iso1 (GRAIL): N48A (protein) parent chain: MGPPPGAGVSCRGGCGFSRLLAWCFLLALSPQAPGSRGAEAVWTAYLNVSWRVPHTGVNRTVWELSEEGVYGQDSPLEPVAGVLVPPDGPGALNACNPHTNFTVPTVWGSTVQVSWLALIQRGGGCTFADKIHLAYERGASGAVIFNFPGTRNEVIPMSHPGAVDIVAIMIGNLKGTKILQSIQRGIQVTMVIEVGKKHGPWVNHYSIFFVSVSFFIITAATVGYFIFYSARRLRNARAQSRKQRQLKADAKKAIGRLQLRTLKQGDKEIGPDGDSCAVCIELYKPNDLVRILTCNHIFHKTCVDPWLLEHRTCPMCKCDILKALGIEVDVEDGSVSLQVPVSNEISNSASSHEEDNRSETASSGYASVQGTDEPPLEEHVQSTNESLQLVNHEANSVAVDVIPHVDNPTFEEDETPNQETAVREIKS", "values": [{"measurement": "expression_or_secretion", "result": "decreases"}]}, {"protein": "RNF128 Iso1 (GRAIL): N59A (protein) parent chain: MGPPPGAGVSCRGGCGFSRLLAWCFLLALSPQAPGSRGAEAVWTAYLNVSWRVPHTGVNRTVWELSEEGVYGQDSPLEPVAGVLVPPDGPGALNACNPHTNFTVPTVWGSTVQVSWLALIQRGGGCTFADKIHLAYERGASGAVIFNFPGTRNEVIPMSHPGAVDIVAIMIGNLKGTKILQSIQRGIQVTMVIEVGKKHGPWVNHYSIFFVSVSFFIITAATVGYFIFYSARRLRNARAQSRKQRQLKADAKKAIGRLQLRTLKQGDKEIGPDGDSCAVCIELYKPNDLVRILTCNHIFHKTCVDPWLLEHRTCPMCKCDILKALGIEVDVEDGSVSLQVPVSNEISNSASSHEEDNRSETASSGYASVQGTDEPPLEEHVQSTNESLQLVNHEANSVAVDVIPHVDNPTFEEDETPNQETAVREIKS", "values": [{"measurement": "expression_or_secretion", "result": "decreases"}]}, {"protein": "RNF128 Iso1 (GRAIL): 3NA (protein) parent chain: MGPPPGAGVSCRGGCGFSRLLAWCFLLALSPQAPGSRGAEAVWTAYLNVSWRVPHTGVNRTVWELSEEGVYGQDSPLEPVAGVLVPPDGPGALNACNPHTNFTVPTVWGSTVQVSWLALIQRGGGCTFADKIHLAYERGASGAVIFNFPGTRNEVIPMSHPGAVDIVAIMIGNLKGTKILQSIQRGIQVTMVIEVGKKHGPWVNHYSIFFVSVSFFIITAATVGYFIFYSARRLRNARAQSRKQRQLKADAKKAIGRLQLRTLKQGDKEIGPDGDSCAVCIELYKPNDLVRILTCNHIFHKTCVDPWLLEHRTCPMCKCDILKALGIEVDVEDGSVSLQVPVSNEISNSASSHEEDNRSETASSGYASVQGTDEPPLEEHVQSTNESLQLVNHEANSVAVDVIPHVDNPTFEEDETPNQETAVREIKS", "values": [{"measurement": "expression_or_secretion", "result": "decreases"}]}, {"protein": "RNF128 Iso1 (GRAIL): N101A (protein) parent chain: MGPPPGAGVSCRGGCGFSRLLAWCFLLALSPQAPGSRGAEAVWTAYLNVSWRVPHTGVNRTVWELSEEGVYGQDSPLEPVAGVLVPPDGPGALNACNPHTNFTVPTVWGSTVQVSWLALIQRGGGCTFADKIHLAYERGASGAVIFNFPGTRNEVIPMSHPGAVDIVAIMIGNLKGTKILQSIQRGIQVTMVIEVGKKHGPWVNHYSIFFVSVSFFIITAATVGYFIFYSARRLRNARAQSRKQRQLKADAKKAIGRLQLRTLKQGDKEIGPDGDSCAVCIELYKPNDLVRILTCNHIFHKTCVDPWLLEHRTCPMCKCDILKALGIEVDVEDGSVSLQVPVSNEISNSASSHEEDNRSETASSGYASVQGTDEPPLEEHVQSTNESLQLVNHEANSVAVDVIPHVDNPTFEEDETPNQETAVREIKS", "values": [{"measurement": "expression_or_secretion", "result": "decreases"}]}]}
